Experimental data published in the DeepSol protein solubility set.

Assay: soluble on expression in E. coli; label from the status in PepcDB or PDB records

Soluble on expression in E. coli, soluble:
MGSSHHHHHHSSGLVPRGSHMASKSFQLLEPYNIKANLRPYQIKGFSWMRFMNKLGFGICLADDMGLGKTLQTIAVFSDAKKENELTPSLVICPLSVLKNWEEELSKFAPHLRFAVFHEDRSKIKLEDYDIILTTYAVLLRDTRLKEVEWKYIVIDEAQNIKNPQTKIFKAVKELKSKYRIALTGTPIENKVDDLWSIMTFLNPGLLGSYSEFKSKFATPIKKGDNMAKEELKAIISPFILRRTKYDKAIINDLPDKIETNVYCNLTPEQAAMYKAEVENLFNNIDSVTGIKRKGMILSTLLKLKQIVDHPALLKGGEQSVRRSGKMIRTMEIIEEALDEGDKIAIFTQFVDMGKIIRNIIEKELNTEVPFLYGELSKKERDDIISKFQNNPSVKFIVLSVKAGGFGINLTSANRVIHFDRWWNPAVEDQATDRVYRIGQTRNVIVHKLISVGTLEEKIDQLLAFKRSLFKDIISSGDSWITELSTEELRKVIELSVGGY
MMINIQEDKLVSAHDAEEILRFFNCHDSALQQEATTLLTQEAHLLDIQAYRAWLEHCVGSEVQYQVISRELRAASERRYKLNEAMNVYNENFQQLKVRVEHQLDPQNWGNSPKLRFTRFITNVQAAMDVNDKELLHIRSNVILHRARRGNQVDVFYAAREDKWKRGEGGVRKLVQRFVDYPERILQTHNLMVFL
MSLNKESLKEYLSSRYQGWSSFLNNVIFPIFGEDDFEDGFETELLESQPERRQLAEATGIRSIKQVGMMYVGVEPLQIFDVTVSDRVMMEHNRVNIQRLIRAVMDQFSCAFMLFHYEDDTRWDWRFTYCRKSGNKEESTDSKRYTFLLGPGQSCRTATDNFIALYDKRNSLEIKDIENAFNVEALSKEFFGKYKAQYEAFVNYMVDPTNGMRQHFIDTGFDHTGMAADKIRDREEKPIRDYVKKLLGRIVFLHFLQKKGWLGVPASKEWGEGDRDFMLNIFKNANERQKENFLDDILEDLFTEGLDRNRSDQGDLYDTKVEGFRNCRIPYLNGGLFERDILDKKPSHFPASYFNGLLTMLSQYNFTIDENDPNDAEVGVDPEMLGRIFENLLEDNKDKGAFYTPKEIVQYMCRESLIAYLQTDMREEDKECIRQFVTTHDASQLGELKEYIDQKLYDVKICDPAIGSGAFPMGLLRELFFCRSAIEPNIVENAANIKRHIIQNNIYGVDIERGAVDIARLRFWLSLIVDEKSPEALPNLDFKIMQGNSLLEQYKGVDLSTEGHHHHHH
MRAIIIGIGQCGTKIADIFSLVDFEALAINTSKSDLEYLKHIPPERRILVGESIVGGKGVNANPLLGREAMKRDLPMVMKKISSLVGYEDVDIFFLTFGFGGGTGAGGTPVLAEALKEEYPDSLVVAIGALPLKEEGIRPTINAAITIDKLSRIVDSIIAIDNNKLKESDEDISQAYEKINYAIVERIASLLALIDVPGEQTLDASDLKFVLRAMGSFATVGYAKADATKIKSLSRLIIRSFENEGLYLDVNLESALYGLVAIHGPPEVLKAKEIFDALSELSQRIRGKQIFRGFYPDPREREVEVVTLLSGIYESKSIENIVITAKRYAREFMKAKEEGEMKKRELLKGLPDFEDIYPGEVDEG
MAHHHHHHMGTLEAQTQGPGSMKQPTAVIFDWYNTLIDTSINIDRTTFYQVLDQMGYKNIDLDSIPNSTIPKYLITLLGKRWKEATILYENSLEKSQKSDNFMLNDGAIELLDTLKENNITMAIVSNKNGERLRSEIHHKNLTHYFDSIIGSGDTGTIKPSPEPVLAALTNINIEPSKEVFFIGDSISDIQSAIEAGCLPIKYGSTNIIKDILSFKNFYDIRNFICQLINI
AHHHHHHGSRGILDDIDKKIIEILQKDGKVPLREISKITGLAESTIHERIKRLRESGVIKKFTAVVNPEALGYNILAFILIKVKAGKYSEVASKLVKYPEIVEVYETTGDYDMVVKIRTKNSEELNNFLDMVGSIEGVEGTHTMIVLKVHKETTELPVK
MGSDKIHHHHHHMLAKRIIACLDVKDGRVVKGTNFENLRDSGDPVELGKFYSEIGIDELVFLDITASVEKRKTMLELVEKVAEQIDIPFTVGGGIHDFETASELILRGADKVSINTAAVENPSLITQIAQTFGSQAVVVAIDAKRVDGEFMVFTYSGKKNTGILLRDWVVEVEKRGAGEILLTSIDRDGTKSGYDTEMIRFVRPLTTLPIIASGGAGKMEHFLEAFLAGADAALAASVFHFREIDVRELKEYLKKHGVNVRLEGL
MSTFGEHRPYVFLPPADLDRIAAQWSKDSARPDAQGRGIAIFSAITGSYDSINHHEHLIPGADYLLFSDAPKPRYVYQPRQAPWFDCDTVRAARFIKTHPHMLLGGYRIAVWIDGNILIRGDLLPLVQRFEESGLAFGAVPHPLRQSVYAEAVECMKRGKDDEATIRRQMQRYRREEFDCEDLIESNLLMFRLGHPSLAPLLDTWWAQIESGSRRDQLSLNYALHKTGVEWLALTQRPHSVRDHPALALMHHRSQFNPLEHHHHHH
MAHHHHHHSLSILVTRPSPAGEELVSRLRTLGQVAWHFPLIEFSPGQQLPQLADQLAALGESDLLFALSQHAVAFAQSQLHQQDRKWPRLPDYFAIGRTTALALHTVSGQKILYPQDREISEVLLQLPELQNIAGKRALILRGNGGRELIGDTLTARGAEVTFCECYQRCAIHYDGAEEAMRWQAREVTMVVVTSGEMLQQLWSLIPQWYREHWLLHCRLLVVSERLAKLARELGWQDIKVADNADNDALLRALQEG

Soluble on expression in E. coli, not soluble:
MGLTEQKQKHMEQLSDKNGIISALAFDQRGALKRLMAKYQSEEPTVSQIEALKVLVAEELTPYASSMLLDPEYGLPATKVLDDNAGLLLAYEKTGYDTSSTKRLPDCLDIWSAKRIKEEGADAVKFLLYYDVDSSDEVNEEKEAYIERIGSECVAEDIPFFLEILSYDEKITDSSGIEYAKIKPRKVIEAMKVFSNPRFNIDVLKVEVPVNMDYVEGFAQGETAYNKATAAAYFREQDQATLLPYIFLSAGVPAQLFQETLVFAKEAGAKFNGVLCGRATWAGSVKEYVEKGEAGARQWLRTIGFQNIDELNKILQKTATSWKER
MGSDKIHHHHHHMSTDNYYIRRRLLSSLTAHLDQPEITVLVGPRQSGKTTILKRLESELRAGGRKTLWLNLDFEDDFRHVASEGALLQKIQLELGSGGGVVFIDEIQRRENAGLFLKGLYDQGLPWKFVVSGSGSIELKEKISESLVGRKRLFELSTVSFGEFADFRTGYRYTDRLRDYFRTEPSKTDQLFREYLMYGGYPRVVLADTHQEKMATINEIFRSYLEKDIVYLLRVEKSESFSNLVRVLATQSGKMVSYSELSATLGLSLATVKLYLWYLEKTYIIDKVTPWYTNIRKEITKAPVYYFRDIGLRNFAAGSFGALSDSEAGFAFQNVIHAMLKERFPLADSTIHYWRTKDKAEVDFVLRSGDTVTPLEVKYRDMKKLDVRRSFLGFLTRYHPEFGYIVNRNYSDEALICQTRVRCLPYWELMFEEAFP
MGSDKIHHHHHHMFYPEKRDGFSRTGKFEVEGRTVQTPAILEVGEIPEWDFGLAPTSLKFISEELYSRLRPINEEVEILTSLHLLSPRQLVQVFEDLSKEGVSPKPLYAASSALPSNVSLLIYLGADLVDNVLAIAKAYSGIYFLGEVEVEISKLRRLPCNCIHCRNRVVDEVENLLETTAKHNTEMLRMEVEKCRRLILNEELRNYVEGKVKLNPEFTAALRLSDSLRNHSTFPRFRKSRCNFSALESSSRFEVRYFFERALECYKPFSDTVLLLPCTARKPYLTSRTHRALRSKVKVNVNEIIISSPLVVPREFELLYPAVNYDTPVTGHWSEEEVSFVAGWLKRFIEKGGFRKVVAHVTGGYRKVVERVEDEVEAEVVYTAEKDVLSDESIERLKQEIESKGKVDLYRRILEHMLSYQFGITWSGKVAGRYPELELLEGKKRLARVDRIYGMLDIYEKIAAYLLEKNIYTVEIGDFEVKGTIFAGGVLRADEKIRPNDVVVFHNSRIFGVGLAAMSGKEMAGSEKGIAINVKRKFSF
MYVMTQSGWLEVICGCMFSGKSEELIRRVRLAQFAKQEVKVFKPTIDNRYSEDAVVSHNGNSVIAIPVATPAEMFRYISAATDVVAIDEVQFFSDDIIDVVQTLADGGCRVITAGLDQDFRGEPFGPVPALMAIAESVTKLQAVCTVCGSPASRTQRLINGAPASYDDPVILVGASEAYEPRCRHHHEVPGKPKKRYNRPLAGHTGE
MARLARLGEPFALATVVASSGSSPRKAGAKMLIRGDGSALGTVGGGHVEQDTLAAARASLAEGAPRTLEFVLTEEHGYACGGSMSVFIEPQGRRPLLVMFGAGHVGRAVTALAHGCGFRVIVVDERPEYAVPALLPGADEIVCVPVGAAFARLTLDRESFAVIATPGHVHDFDAVRGCLATEVGFIGLLGSRRKREALMKTLTEEGYEAGRQARVVTPVGLDIGAQTPEEIAVSIVGQLVKLRRQA
MGSDKIHHHHHHMKGRMPIIEALCAHVERNATSWHVPGHKNGTLFEGLPSFFEWDKTELRGLDDFHYPEEAIYEAKLLLRQVYEARDSHFLINGSTVGNWAMLAAVSQRGDRIYVQRNSHKSVFNALEWLGLSPILLGPEIDPSTGISGNVSRETLEEALTTFPGGVAVFLTSPTYYGETARIEELLPFTTASGIPLLIDEAHGAHFGEAFGVRSAFELGATAVVQSAHKTLPALTMGAWIHERFTDDERRRLTRALQAFQTSSPSYLLMASLDFAREYREKWTVSNMKSVRTSHEHLHQQINQLTDITAFTFDDWSRMILSCEEYSGSQLIEALADQGLDAEFALGPHVVCILPLRSIEPFEQDTWINQIQLAIETLKAEGIPDKRYMEQPFMGKIKVSSLACPLDQLEDAEAVEQTFEQSVGLVSLETIIPYPPGIPLILRGERITAEHITMIEHYINTSIHLQGGEFLHQGKLRVIQEGIRE
SDLSWIKPGKVAWDWWNDWNLDGVDFVTGVNNPTYKAYIDFASANGIEYVILDEGWAVNLQADLMQVVKEIDLKELVDYAASKNVGIILWAGYHAFERDMENVCRHYAEMGVKGFKVDFMDRDDQEMTAFNYRAAEMCAKYKLILDLHGTHKPAG
HGTMEVPINRTYSCSKEGAESPKTPACQEAKRVGGTQAMYDWNGINQNPPGDNHQSVVPDGTLCGGGQAKFKGFNLARTDWPTTNIVPDAKGNFEFIYTATMPHATKYFKFYVTRNGWNPNQPLKWSDLEPFGTYNGNPPLDDKQRYHMTMKLPTGKTGRHIIYNVWKRSDSEEAFYSCSDVNFTN
MLFDTHAHLNAVQYEEDLEQVIERARDEGVSHIVVVGFDRPTIDRAIELAERYPFIYAAVGWHPVDAIEMTDDDLQMIEQLAAHPKVVALGEMGLDYHWDKSPKDVQQEVFRQQIRLAKKVKLPIIIHNREATADILKILQEENAAEVGGIMHCFSGSVEVAKQCMDMNFLISLGGPVTFKNAKKPKEVAKEIPLSHLLIETDCPYLTPHPFRGKRNEPSYVKYVAEAIAQIKNISFAEVAETTAENAKKLFAIDR
MGSDKIHHHHHHMPNQAWSYQMLHLDLAWLNQLYSEFQEQGLDLHIPQHKPLIIKDEFLYDAFTEMNETLFDAQKLIFEKEQSLLHCLIHLLLPHFILEEIQKPQYLYKDFLNLIDVISSSEGFISLEELAQRVGLSRYAIIRLFKANVGLTPHAFQINLKINQAREQLKKGVPLAELAVNLGFSDQSHFHKAFKAHTGVTPRQFQLAAAQ
MGNGDKVMSHWSFHIPRLHHHEHDHEKVPKGCLAVKVGQGEEQERFVIPVMYFNHPLFGQLLKEAEEEFGFAQKGTITIPCHVEEFRYVQGLIDRENTRFLGTNLLDHHHHHHNHLIRCFRV
MTYPYRTTMALNTYQYRETTMIDPKKIEQIARQVHESMPKGIREFGEDVEKKIRQTLQAQLTRLDLVSREEFDVQTQVLLRTREKLALLEQRISELENRSTEIKKQPDPETLPPTLLEHHHHHH
